This series concerns the molecule itself. In words: immunoprecipitation and non-reducing SDS-PAGE; BV-2 lysates, IP with goat anti-MLK3; precipitates separated by SDS-PAGE without DTT; blot with rabbit anti-MLK3; disulfide-linked dimer; cells with or without LPS (100 ng/ml).

B1: Mixed lineage kinase 3 (MLK3) (natural protein, mouse (endogenous in BV-2), UniProt Q80XI6 1-850, looked up)
chain: MEPLKNLFLKSPLGSWNGSGSGGGGGTGGVRPEGSPKATAAYANPVWTALFDYEPNGQDELALRKGDRVEVLSRDAAISGDEGWWAGQVGGQVGIFPSNYVSRGGGPPPCEVASFQELRLEEVIGIGGFGKVYRGSWRGELVAVKAARQDPDEDISVTAESVRQEARLFAMLAHPNIIALKAVCLEEPNLCLVMEYAAGGPLSRALAGRRVPPHVLVNWAVQIARGMHYLHCEALVPVIHRDLKSNNILLLQPIEGDDMEHKTLKITDFGLAREWHKTTQMSAAGTYAWMAPEVIKASTFSKGSDVWSFGVLLWELLTGEVPYRGIDCLAVAYGVAVNKLTLPIPSTCPEPFAQLMADCWAQDPHRRPDFASILQQLEALEAQVLREMPRDSFHSMQEGWKREIQGLFDELRAKEKELLSREEELTRAAREQRSQAEQLRRREHLLAQWELEVFERELTLLLQQVDRERPHVRRRRGTFKRSKLRARDGGERISMPLDFKHRITVQASPGLDRRRNVFEVGAGDSPTFPRFRAIQLEPTESGQTWGRQSPRRLEDSSNGERRACWAWGPSSPKPGEAQNGRRRSRMDEATWYLDSDDSSPLGSPSTPPALNGNPPRPSPEPEEPRRAGPTERGNSSGTPKLIQRALLRGTALLASLGLGRDLQPPGGLSRERGESPTAPPPAQMPSPCPPELPSTPLIRLSQTTPDAHSSPTPGPLLLDLGVPSGQPSAKSPRREETRGRTVSPPPGISRSAPGTPGTPRSPPLGLISRPRPSPLRSRIDPWSFVSAGPRPSPLPSPQPAPRRAPWTLFPDSDPFWDSPPANPFRGGSQDCRTQTKDMGAQAPWAPEAGP
notes: Mixed lineage kinase 3 (MLK3), endogenous in murine BV-2 microglial cells; monomer of 105 kDa on SDS-PAGE; Precipitated with a goat anti-MLK3 antibody (Santa Cruz Biotechnology); the dimer is disulfide-linked and is seen only without DTT; source: endogenous, BV-2 cell lysate
Take B1: the stoichiometry N (commonly the number of molecules, sites or subunits per partner or assembly) amounted to 2.
